83 variants from the RNAGym collection of RNA variant scans (doi:10.1073/pnas.2313332121) can be followed below.

To fix the notation:
B1: TPR t1 (parent)
chain: GACCAAUCUGCCCUCAGAGCUCGAGAACAUCUUCGGAUGCAGAGGAGGCAGGCUUCGGUGGCGCGAUAGCGCCAACGUCCUCAACCUCCAAUGCAUCCCACCACAUGAUGAUGCCUGAAGAGCCUUGGUUUUUUG

In this data set the parent is B1. Put plainly: polymerase ribozyme fitness, log enrichment relative to wild type (log ratio); higher = more active; in vitro selection for triplet polymerase activity. Put shortly: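 Libraries of mutants in each subunit of a heterodimeric triplet polymerase ribozyme were generated by PCR and transcribed. In triplicate, each went through one in vitro selection round: annealing with biotinylated primer, partner subunit and triplets; frozen incubation at −7 °C; gel excision of extended constructs; streptavidin-bead capture; RT-PCR. Fitness, taken from Illumina sequencing of input and output libraries, is the logarithm of a genotype's enrichment over wild-type enrichment, averaged across replicates with inverse-variance weights. The logarithm is base 2, and genotypes needed ≥10 input reads and ≥1 read per output to be kept.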
For the variant C73U C79G A119G C123A, the “polymerase ribozyme fitness (log ratio)” value was -0.377.

As to G17U C73G, the “polymerase ribozyme fitness (log ratio)” value is -2.39.

For the variant G35A U92G A121G U125A, the “polymerase ribozyme fitness (log ratio)” value is -5.24.

For C3U C49A, the “polymerase ribozyme fitness (log ratio)” value was determined as 0.209.

C12G U14A C62A C86A C102A G120C U129A: the “polymerase ribozyme fitness (log ratio)” value is -7.34.

For G47U C72G, the “polymerase ribozyme fitness (log ratio)” value was -2.79.

For the variant C8A C12U G45U C62U C94G, the “polymerase ribozyme fitness (log ratio)” value was -1.01.

As to C8U C56G C64U C80A, the “polymerase ribozyme fitness (log ratio)” value was -3.18.

Turning to A26U A43U G45U G63C C89U G120A, the “polymerase ribozyme fitness (log ratio)” value is -6.22.

In the case of C13A C70U, the “polymerase ribozyme fitness (log ratio)” value is -2.36.

Consider C8U C34A G44U G61A U130G, for which the “polymerase ribozyme fitness (log ratio)” value is -4.33.

Consider A6G C82G U87A A90U, for which the “polymerase ribozyme fitness (log ratio)” value is -2.92.

For A66C G120U U132C, the “polymerase ribozyme fitness (log ratio)” value is -0.962.

Take C28U G39C C53U G61U: the “polymerase ribozyme fitness (log ratio)” value was -2.31.

Consider C13U G93U, for which the “polymerase ribozyme fitness (log ratio)” value is -0.472.

For the variant C13U G51A C56G U78G C89U, the “polymerase ribozyme fitness (log ratio)” value is -0.499.

For the variant C22G C123U, the “polymerase ribozyme fitness (log ratio)” value was -2.66.

For C70U C97A C102G U109G G117A, the “polymerase ribozyme fitness (log ratio)” value was -6.26.

In the case of C73A G93A, the “polymerase ribozyme fitness (log ratio)” value was -1.04.

As to C28G C89A, the “polymerase ribozyme fitness (log ratio)” value was -4.51.

In the case of U21A U38G C56A U78C, the “polymerase ribozyme fitness (log ratio)” value is -1.08.

For U21C G57U C72G, the “polymerase ribozyme fitness (log ratio)” value is -2.29.

As to G47C C72U C85A C99G G110A, the “polymerase ribozyme fitness (log ratio)” value was -7.27.

As for C15G A66U, the “polymerase ribozyme fitness (log ratio)” value is -4.55.

For U7A C34A C53A, the “polymerase ribozyme fitness (log ratio)” value was -2.31.

C3U C12U G63A A66C U133A: the “polymerase ribozyme fitness (log ratio)” value was -2.5.

Turning to A41U C49U, the “polymerase ribozyme fitness (log ratio)” value is -2.03.

C3A C123U: the “polymerase ribozyme fitness (log ratio)” value is -1.48.

In the case of U81G U106G C124U, the “polymerase ribozyme fitness (log ratio)” value is -5.53.

C15A A37U C76G: the “polymerase ribozyme fitness (log ratio)” value was -2.94.

Take U59G C82A G110A: the “polymerase ribozyme fitness (log ratio)” value was -0.532.

With C8G A18G G19A A27C, the “polymerase ribozyme fitness (log ratio)” value was -3.93.

Regarding G69A C102A, the “polymerase ribozyme fitness (log ratio)” value is -6.02.

Turning to C8A C15A A41C C49A G58U G63U, the “polymerase ribozyme fitness (log ratio)” value was -3.45.

On to C8A U21C A83G G117A, for which the “polymerase ribozyme fitness (log ratio)” value is -1.39.

As to C4A U87G, the “polymerase ribozyme fitness (log ratio)” value is -1.28.

With U55G C85A U92G U106A, the “polymerase ribozyme fitness (log ratio)” value is -5.73.

Take C12G C115U: the “polymerase ribozyme fitness (log ratio)” value was -1.38.

Take A68U C72U C82A G93C C115U G122A: the “polymerase ribozyme fitness (log ratio)” value is -7.25.

Turning to U14A U112G, the “polymerase ribozyme fitness (log ratio)” value is -0.736.

Consider G60U C80A, for which the “polymerase ribozyme fitness (log ratio)” value was -3.33.

Regarding G39A C102A, the “polymerase ribozyme fitness (log ratio)” value is -2.49.

C76A C79U C82G A100C C101A: the “polymerase ribozyme fitness (log ratio)” value was -4.79.

For G47C A121G, the “polymerase ribozyme fitness (log ratio)” value is 0.606.

Turning to C12G C15G G51U C73A G117U, the “polymerase ribozyme fitness (log ratio)” value was -2.07.

On to C4U C73G A118G, for which the “polymerase ribozyme fitness (log ratio)” value was -1.58.

Take C72A C102U C123A C124G: the “polymerase ribozyme fitness (log ratio)” value was 0.156.

As to C40U C73A C101U, the “polymerase ribozyme fitness (log ratio)” value is -0.192.

Consider A18U C72U U78A, for which the “polymerase ribozyme fitness (log ratio)” value was -2.59.

U7A A18U C22G C72A: the “polymerase ribozyme fitness (log ratio)” value is -4.55.

U32C A75G C124A: the “polymerase ribozyme fitness (log ratio)” value came out at 1.81.

As for G93C G127C, the “polymerase ribozyme fitness (log ratio)” value was -1.82.

For C76U U78G, the “polymerase ribozyme fitness (log ratio)” value is -0.0426.

C15U G61U A91G A121C U126A: the “polymerase ribozyme fitness (log ratio)” value was -4.05.

With G57C U78C, the “polymerase ribozyme fitness (log ratio)” value was found to be 0.0872.

For C73G U78A, the “polymerase ribozyme fitness (log ratio)” value is -0.494.

Consider C34A U131A, for which the “polymerase ribozyme fitness (log ratio)” value is -1.94.

Take C97U G128A: the “polymerase ribozyme fitness (log ratio)” value was -2.66.

Take A50U U125G U129C: the “polymerase ribozyme fitness (log ratio)” value is -2.41.

For the variant U21A A43C G63C, the “polymerase ribozyme fitness (log ratio)” value is -4.13.

Turning to C34U C73A C102U C123A, the “polymerase ribozyme fitness (log ratio)” value is -3.14.

Take G48C U55G C79U A84C C85G G93U C124A: the “polymerase ribozyme fitness (log ratio)” value worked out at 0.322.

As to C73G C82A A90U C123G, the “polymerase ribozyme fitness (log ratio)” value was -0.559.

Consider G45A C98U U106A, for which the “polymerase ribozyme fitness (log ratio)” value is -1.28.

As for C72U A100C, the “polymerase ribozyme fitness (log ratio)” value is -1.3.

Take G35A C70U C79G C115A U133A: the “polymerase ribozyme fitness (log ratio)” value was -7.56.

As to C13U C56U C72G C80U C82U C86U U112C, the “polymerase ribozyme fitness (log ratio)” value is -3.52.

Take C34A C73G: the “polymerase ribozyme fitness (log ratio)” value is -2.27.

In the case of C4U G60A C86U G93A G117A U133A, the “polymerase ribozyme fitness (log ratio)” value is -3.03.

Consider C13U C124A G128A, for which the “polymerase ribozyme fitness (log ratio)” value amounted to 0.853.

Turning to C80U C89A A119U, the “polymerase ribozyme fitness (log ratio)” value was -2.89.

For the variant C56U C72A G120A, the “polymerase ribozyme fitness (log ratio)” value is -0.183.

In the case of C34A C88U, the “polymerase ribozyme fitness (log ratio)” value was -2.2.

As to C13U A84U, the “polymerase ribozyme fitness (log ratio)” value was -0.00977.

As for C4G C8A C89A G120C, the “polymerase ribozyme fitness (log ratio)” value is -0.0855.

In the case of A50U U81C C114A, the “polymerase ribozyme fitness (log ratio)” value was -6.09.

Take C40A G61A: the “polymerase ribozyme fitness (log ratio)” value is -0.734.

As to U92A C115G C123G, the “polymerase ribozyme fitness (log ratio)” value is -5.89.

G45C C76G U125G: the “polymerase ribozyme fitness (log ratio)” value was -1.06.

For A18C G52A C72U, the “polymerase ribozyme fitness (log ratio)” value was -2.39.

For the variant A18G U78C G117U C123A C124G, the “polymerase ribozyme fitness (log ratio)” value was -1.41.

With G61C A103C U130G, the “polymerase ribozyme fitness (log ratio)” value is -6.98.

C11A C53U C56A C76G: the “polymerase ribozyme fitness (log ratio)” value is -3.44.
